# According to patent publication CN101001872A (MACROGENICS INC, dated 2007):
# T1: 细胞表面的人FcγRIIB (CD32B) (human, UniProt P31994 43-310)
# T1 construct: whole, on cells; also called huFcγRIIB; CHO/IIB
# T1 sequence (looked up): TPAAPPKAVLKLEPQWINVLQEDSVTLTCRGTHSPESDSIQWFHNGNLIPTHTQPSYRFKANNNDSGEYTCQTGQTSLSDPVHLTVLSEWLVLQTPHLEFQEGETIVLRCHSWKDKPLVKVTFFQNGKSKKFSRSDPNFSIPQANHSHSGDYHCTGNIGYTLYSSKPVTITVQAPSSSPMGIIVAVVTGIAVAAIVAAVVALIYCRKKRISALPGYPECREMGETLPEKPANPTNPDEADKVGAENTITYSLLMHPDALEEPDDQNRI
# T2: 人外周血白细胞上的huFcγRIIA (human, UniProt P12318 34-317)
# T2 construct: whole, on cells; also called FcγRIIA同种型
# T2 sequence (looked up): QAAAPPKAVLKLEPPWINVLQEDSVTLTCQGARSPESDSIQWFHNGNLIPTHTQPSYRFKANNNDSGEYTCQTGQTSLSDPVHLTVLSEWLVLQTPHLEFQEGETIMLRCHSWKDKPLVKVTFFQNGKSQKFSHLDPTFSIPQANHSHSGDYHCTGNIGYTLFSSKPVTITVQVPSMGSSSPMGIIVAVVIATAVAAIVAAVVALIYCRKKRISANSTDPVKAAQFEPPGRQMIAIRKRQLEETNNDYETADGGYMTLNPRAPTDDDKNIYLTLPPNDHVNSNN
# T3: THP1单核细胞株上的CD32A (H131形式) (human, UniProt P12318 34-317)
# T3 construct: whole, on cells; also called THP-I
# T3 sequence (looked up): T2 sequence (looked up)
# T4: 可溶性单体形式的人CD32B (293H细胞中表达的可溶性细胞外结构域) (human, UniProt P31994 43-217)
# T4 construct: extracellular domain; also called FcγRIIB
# T4 sequence (looked up): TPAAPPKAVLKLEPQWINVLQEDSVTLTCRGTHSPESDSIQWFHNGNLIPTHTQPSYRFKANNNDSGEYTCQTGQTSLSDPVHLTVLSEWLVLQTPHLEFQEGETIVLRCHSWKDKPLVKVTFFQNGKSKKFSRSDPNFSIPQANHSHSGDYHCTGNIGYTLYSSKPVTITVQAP
# T5: 可溶性单体形式的人CD32A-R131 (human, UniProt P12318 34-217)
# T5 construct: extracellular domain
# T5 sequence (looked up): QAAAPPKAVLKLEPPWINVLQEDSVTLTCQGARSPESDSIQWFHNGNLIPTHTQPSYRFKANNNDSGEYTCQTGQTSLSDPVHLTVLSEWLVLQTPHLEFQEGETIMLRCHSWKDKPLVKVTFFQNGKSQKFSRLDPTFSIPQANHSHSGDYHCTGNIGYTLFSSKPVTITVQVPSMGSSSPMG
# B1: 由克隆2B6产生的小鼠单克隆抗体 (ATCC PTA-4591) (antibody)
# heavy: QVQLQQPVTELVRPGASVMLSCKASDYPFTNYWIHWVKQRPGQGLEWIGVIDPSDTYPNYNKKFKGKATLTVVVSSSTAYMQLSSLTSDDSAVYYCARNGDSDYYSGMDYWGQGTSVTVSS
# light: DILLTQSPAILSVSPGERVSFSCRTSQSIGTNIHWYQQRTNGFPRLLIKNVSESISGIPSRFSGSGSGTDFILSINSVESEDIADYYCQQSNTWPFTFGGGTKLEIK
# notes: The entries may hold only the variable regions; also called 2B6抗体; m2B6
# Tests used:
# 细胞表面的人FcγRIIB (CD32B) [1] = biological target: T1, 细胞表面的人FcγRIIB (CD32B); experiment: cell-based or functional assay
# 细胞表面的人FcγRIIB (CD32B) [2] = biological target: T1, 细胞表面的人FcγRIIB (CD32B); experiment: two-colour FACS on CHO cells with full-length FcγRIIB, after mouse IgG1 isotype control
# 细胞表面的人FcγRIIB (CD32B) [3] = biological target: T1, 细胞表面的人FcγRIIB (CD32B); experiment: two-colour FACS on CHO cells with full-length FcγRIIB
# 人外周血白细胞上的huFcγRIIA = biological target: T2, 人外周血白细胞上的huFcγRIIA; experiment: FACS on human peripheral blood leukocytes
# [4] = biological target: FcγRIIB (ELISA包被, 哺乳动物系统产生) (human) (UniProt P31994); experiment: direct ELISA, receptor-coated plate
# [5] = biological target: T3, THP1单核细胞株上的CD32A (H131形式); experiment: FACS on THP-1 cells
# [6] = biological target: T4, 可溶性单体形式的人CD32B (293H细胞中表达的可溶性细胞外结构域); experiment: SPR (BIAcore 3000), captured antibody, soluble monomeric receptor injected
# 可溶性单体形式的人CD32A-R131 = biological target: T5, 可溶性单体形式的人CD32A-R131; experiment: SPR (BIAcore 3000), antibody captured by goat anti-mouse F(ab′)2, soluble monomeric receptor injected
molecule,measurement,setting,value
嵌合的抗CD32B抗体ch2B6 (antibody),ADCC,细胞表面的人FcγRIIB (CD32B) [1],> 10 ng/mL
聚集的生物素化人IgG (ligand),percent of cells labelled,细胞表面的人FcγRIIB (CD32B) [2],60 %
B1,binding result,细胞表面的人FcγRIIB (CD32B) [3],binds
same,binding result,人外周血白细胞上的huFcγRIIA,no binding
same,"fold binding against the commercial antibodies AT10, FL18.26 and IV.3",[4],< 4.5 倍
same,binding result,[5],no binding
same,binding result,[6],binds
same,binding result,可溶性单体形式的人CD32A-R131,no binding (tested: 100nM可溶性受体)
